Experimental data published in paper PMC4072508, “Genome-Wide Prediction and Validation of Peptides That Bind Human Prosurvival Bcl-2 Proteins” (PLoS Computational Biology, 2014).

T1: Mcl-1, Q07820
T1 chain: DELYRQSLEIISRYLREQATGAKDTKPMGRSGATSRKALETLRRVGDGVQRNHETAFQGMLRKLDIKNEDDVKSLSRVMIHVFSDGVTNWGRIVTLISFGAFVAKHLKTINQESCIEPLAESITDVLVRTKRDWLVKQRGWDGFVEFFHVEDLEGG

T2: Bfl-1, Q16548
T2 chain: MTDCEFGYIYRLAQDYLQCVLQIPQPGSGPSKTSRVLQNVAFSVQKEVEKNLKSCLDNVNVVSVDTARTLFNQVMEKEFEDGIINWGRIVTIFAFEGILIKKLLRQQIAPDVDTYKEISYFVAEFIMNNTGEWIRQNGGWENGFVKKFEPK


Columns and labels:
Assay in all cases: peptide SPOT array, c-Myc-tagged receptor at 1 uM or 100 nM, anti-c-Myc-Cy3
[1] = biological target: Bcl-xL, Q07817
[2] = biological target: T1, Mcl-1, Q07820
[3] = biological target: T2, Bfl-1, Q16548

Bcl-xL, Q07817, sequence (Q07817 1-209): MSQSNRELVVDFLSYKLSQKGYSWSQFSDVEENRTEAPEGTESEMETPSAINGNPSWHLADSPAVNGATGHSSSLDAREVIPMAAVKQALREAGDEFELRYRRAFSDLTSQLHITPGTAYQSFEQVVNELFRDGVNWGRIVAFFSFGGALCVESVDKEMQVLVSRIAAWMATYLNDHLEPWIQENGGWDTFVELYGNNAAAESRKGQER

Row | SPOT signal as a fraction of Bim BH3's signal on the same receptor and array [1] | SPOT signal as a fraction of Bim BH3's signal on the same receptor and array [2] | SPOT signal as a fraction of Bim BH3's signal on the same receptor and array [3] | Binder
1 | 0.05 | 0.04 | 0.04 | AFGLGDLPNLDGLVGDQLGDTERKRR [ADAMTS14]
2 | 0.05 | 0.06 | 0.04 | VLLTLLVAAVLRCQLQDVQEAGSCVQ [COL2A1]
3 | 0.16 | 0.16 | 0.09 | KGTAVAICRRLGIFLDTEDVAGKAYT
4 | 0.72 | 0.63 | 0.45 | TAGLRPGARLDRVCGQTLPSLRPEAA [SIPA1]
5 | 0.07 | 0.08 | 0.08 | TETKATFGVHLKIVLDWTERFRDLLL [NOX4]
6 | 0.07 | 0.04 | 0.07 | GSPDSMFGISLAVLLDLNQDGFPDIA
7 | 0.53 | 0.53 | 0.51 | CGEWTRRSLHLRVLLRQLILPTDKGV [FAM149A]
8 | 0.11 | 0.04 | 0.04 | PSECETLGSNDGHNADLLNENNILAK [ZFP90]
9 | 0.06 | 0.03 | 0.04 | APGEEDLCAADNVICDNVGKDWRRLA [FADD]
10 | 0.08 | 0.04 | 0.05 | IQENVDISTVYQIFADEVLGSGQFGI [PRKD3]
11 | 0.09 | 0.04 | 0.03 | SEIMHSFAKCIEVMGDGCLNNEHFEE [IPO5]
12 | 0.05 | 0.04 | 0.04 | MQTLSELAKSFQDMADRCLLVLHLEV
13 | 0.05 | 0.03 | 0.03 | HTALENCASLLCIRLDELQEALTSHC [MYO3A]
14 | 0.06 | 0.09 | 0.04 | APEEDFFSIHIRIVGDWTEGLFNACG [CYBB]
15 | 0.05 | 0.04 | 0.04 | MQTLSELAKSDQDMADRCLLVLHLEV
16 | 0.15 | 0.1 | 0.06 | EAVTDGLKRALRSFGNALGNCILDKD [RAD52]

Row | SPOT signal as a fraction of Bim BH3's signal on the same receptor and array [1] | SPOT signal as a fraction of Bim BH3's signal on the same receptor and array [2] | SPOT signal as a fraction of Bim BH3's signal on the same receptor and array [3] | Binder
17 | 0.06 | 0.03 | 0.03 | ELDEDDLEAELDALGDELLADEDSSY [CHMP5]
18 | 0.92 | 0.32 | 0.29 | SDIRDDISEQVRHVGRTVRGHPRKKL [TMEM184C]
19 | 0.06 | 0.04 | 0.05 | DDMFEPHSWNLKELSDDCFQQWGVRP [PRCP]
20 | 0.06 | 0.07 | 0.06 | FSKREKLVEIDRNIGDERTMVFVETK [DDX4]
21 | 0.06 | 0.04 | 0.03 | TSRINEVQVNLSLLGDDLLLPAQSTL [SPHKAP]
22 | 0.13 | 0.15 | 0.12 | WTLFVYTKGNFRMIGDDLVNSYHLLL [RBL1]
23 | 0.6 | 0.25 | 0.27 | VDSIRPKCQELRHLLDQFSAEIARRR [MCF2L]
24 | 0.07 | 0.06 | 0.06 | ELLYGIWSNCLGLILDSFHMFFDSTA [SLC30A7]
25 | 0.08 | 0.08 | 0.06 | KGTAVAICRRDGIFGDTEDVAGKAYT
26 | 0.56 | 0.26 | 0.31 | ADAIRPRCVELRHLLDDFINGNKKKW [MCF2L2]
27 | 0.05 | 0.04 | 0.04 | QEQEQHVPFDDHTYGDQLVSRFPQLN [NCAPH2]
28 | 0.27 | 0.15 | 0.13 | ACGDSVLARMDRELGDSLRRPQLRLW [SLC19A1]
29 | 0.07 | 0.04 | 0.08 | GSPDSMFGISLAVLGDLNQDGFPDIA
30 | 0.07 | 0.05 | 0.07 | VLAPVQLGKWDVLFCDEINLPDMDKY [DYNC1H1]
31 | 0.06 | 0.03 | 0.04 | LTETSLISGNDHRIGDITSCSVLWLN [FBXW5]
32 | 0.05 | 0.04 | 0.04 | MQTLSELAKSFQDMLDRCLLVLHLEV
